Legend:
[1] = target: HNRNPG N-RRM (GST fusion) (human, UniProt P38159 1-83); assay: EMSA
[2] = target: HNRNPG C-RBD mutant, all three RGG to FGG (GST fusion) (human, UniProt P38159 334-391, R373F;R377F;R384F); assay: UV cross-linking
[3] = target: HNRNPG C-RBD (GST fusion) (human, UniProt P38159 334-391); assay: EMSA
HNRNPG C-RBD (GST fusion), sequence (P38159 334-391): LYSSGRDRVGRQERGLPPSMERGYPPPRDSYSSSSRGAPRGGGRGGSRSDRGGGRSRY

HNRNPG C-RBD mutant, all three RGG to FGG (GST fusion), sequence (P38159 334-391 R373F/R377F/R384F): as the sequence (P38159 334-391) above, with R40F, R44F, R51F counted along it
HNRNPG N-RRM (GST fusion), sequence (P38159 1-83): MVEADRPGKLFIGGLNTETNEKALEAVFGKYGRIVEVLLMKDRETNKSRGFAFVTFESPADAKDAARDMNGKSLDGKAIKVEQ

AAUGUGAAGGACUUUCGUAACGGAAGUAAUUCAA (structured_RNA, 3' biotin) [MALAT1 hairpin 2,515-A]: no binding [1]; no binding [2]; binds [3].

AAUGUGAAGGACUUUCGUAACGGAAGUAAUUCAA (structured_RNA, m6A at position 11; 3' biotin) [MALAT1 hairpin 2,515-m6A]: no binding [1]; no binding [2]; binds [3].

Reference: paper PMC5449601
